Experimental data reported in patent US20040018603.
Where a chain is given by its changes, count along the chain named. In names and notes the source's numbering stands. Several values for one entry are separate records, joined by “and”; a condition that tells them apart may be missing. Equal entries are not always repeated.

Tests used:
[1] = biological target: GST-Cdc25[254-316]-WT (62-amino acid region of Xenopus Cdc25 fused to glutathione S-transferase)
[2] = biological target: GST-Cdc25[254-316]-S287A

B1: His6-Xcds1 (histidine-tagged Xcds1 purified from E. coli) (protein)
chain: MMSRDTKTESQQSQGTSSSSSSSAPQSYSQSSSSGTLSSLDTVPVQDLASIPEDPEIDEDIPQPWGRLWALGKGFLNHDCLHEEYVFGRDKKCDYTFDIPVLNQTDRYKTYSKRHFRIFQELGHGHSRVANIEDLSGNGTFVNKEIIGKGRTLPLTNNAEIALSLPTNKVFVFSDLSVDDQTIYPKDFIDKYIMSRPIGSGACGEVKLAFQKSVCKKVAVKIISKRKFKMNTSSNEHPISVDTEIEILKKLDHPCIIKIENFFDSEDFYYIVLELMEGGELFDRVVNSTRLREPIAKLYFYQMLLAVQYLHENGVIHRDLKPENVLLSSTSEECCIKITDFGQSKILGETSLMRTLCGTPTYLAPEVLNTAGTTGYSSAVDCWSLGVILFVCLCGYPPFSEQNSNIPLKNQIAEGKYTYIAAAWRNVSEQAFDLVKNLLVVDPEQRLTTKQALEHPWLQDDSMKHTVERLMYGVDHTMPPPIKKNIIRKRGHEWDQDASTSSCSEILPTSAEKRAKR
phosphorylation in kinase assay with 32P-ATP (SDS-PAGE, PhosphorImager) [1]: His6-Xcds1, but not a catalytically inactive mutant (His6-Xcds1-N324A), phosphorylated a 62-amino acid region of Xenopus Cdc25 fused to glutathione S-transferase (GST-Cdc25[254-316]-WT)
phosphorylation in kinase assay with 32P-ATP (SDS-PAGE, PhosphorImager) [2]: a serine-to-alanine mutation at this position abolished the phosphorylation

B2: His6-Xcds1-N324A (catalytically inactive mutant) (protein)
chain: B1 chain with N324A
phosphorylation in kinase assay with 32P-ATP (SDS-PAGE, PhosphorImager) [1]: but not a catalytically inactive mutant (His6-Xcds1-N324A)

B3: Xenopus laevis protein kinase Cds1 (Xcds1), endogenous protein in Xenopus egg extracts (protein)
chain: B1 chain
kinase activity of the immunoprecipitate [1]: endogenous Xcds1 immunoprecipitated from egg extracts phosphorylated this substrate well

B4: Hyperphosphorylated Xcds1 protein immunoprecipitated from egg extracts containing poly(dT)40 (protein)
chain: B1 chain
kinase activity of the immunoprecipitate, increase over background [1]: 5 fold and 6 fold
